From patent US20140120128A1 come the findings set out here.

Experiment in all cases: cell-based or functional assay
The target in test [1] is human TLR3 expressed on HEK293 cells (human) (UniProt O15455).
The target of test [2] is T1, human TLR7 expressed on HEK293 cells (human) (UniProt Q9NYK1).
T1 sequence: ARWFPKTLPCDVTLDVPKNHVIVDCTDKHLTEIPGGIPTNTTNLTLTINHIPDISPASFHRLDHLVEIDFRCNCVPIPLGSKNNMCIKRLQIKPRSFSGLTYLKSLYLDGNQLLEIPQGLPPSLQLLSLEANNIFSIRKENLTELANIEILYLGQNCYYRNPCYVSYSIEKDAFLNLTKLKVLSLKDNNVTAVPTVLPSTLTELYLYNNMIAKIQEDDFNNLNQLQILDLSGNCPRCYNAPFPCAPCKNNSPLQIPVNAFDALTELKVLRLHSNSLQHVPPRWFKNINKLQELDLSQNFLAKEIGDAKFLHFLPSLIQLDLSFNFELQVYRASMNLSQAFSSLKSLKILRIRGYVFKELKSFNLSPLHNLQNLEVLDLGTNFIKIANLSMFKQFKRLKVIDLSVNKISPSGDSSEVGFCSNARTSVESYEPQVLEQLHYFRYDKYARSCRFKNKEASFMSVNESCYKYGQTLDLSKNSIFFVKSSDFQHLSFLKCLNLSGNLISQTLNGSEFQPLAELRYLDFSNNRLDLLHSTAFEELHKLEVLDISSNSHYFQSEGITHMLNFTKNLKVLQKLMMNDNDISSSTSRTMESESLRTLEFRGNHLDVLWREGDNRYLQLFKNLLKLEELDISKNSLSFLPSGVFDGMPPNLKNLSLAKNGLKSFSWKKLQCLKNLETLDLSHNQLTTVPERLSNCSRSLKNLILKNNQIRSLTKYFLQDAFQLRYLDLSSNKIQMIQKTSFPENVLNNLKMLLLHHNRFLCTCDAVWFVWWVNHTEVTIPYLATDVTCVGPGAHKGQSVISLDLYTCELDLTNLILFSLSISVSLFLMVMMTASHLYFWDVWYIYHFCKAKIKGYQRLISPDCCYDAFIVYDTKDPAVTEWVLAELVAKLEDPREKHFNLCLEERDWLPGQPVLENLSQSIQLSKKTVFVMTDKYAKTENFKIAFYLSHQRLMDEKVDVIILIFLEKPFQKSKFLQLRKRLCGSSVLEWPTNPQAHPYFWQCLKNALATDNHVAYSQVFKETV

Test [3] addresses T2, human TLR9 expressed on HEK293 cells (human) (UniProt Q9NR96).
T2 sequence: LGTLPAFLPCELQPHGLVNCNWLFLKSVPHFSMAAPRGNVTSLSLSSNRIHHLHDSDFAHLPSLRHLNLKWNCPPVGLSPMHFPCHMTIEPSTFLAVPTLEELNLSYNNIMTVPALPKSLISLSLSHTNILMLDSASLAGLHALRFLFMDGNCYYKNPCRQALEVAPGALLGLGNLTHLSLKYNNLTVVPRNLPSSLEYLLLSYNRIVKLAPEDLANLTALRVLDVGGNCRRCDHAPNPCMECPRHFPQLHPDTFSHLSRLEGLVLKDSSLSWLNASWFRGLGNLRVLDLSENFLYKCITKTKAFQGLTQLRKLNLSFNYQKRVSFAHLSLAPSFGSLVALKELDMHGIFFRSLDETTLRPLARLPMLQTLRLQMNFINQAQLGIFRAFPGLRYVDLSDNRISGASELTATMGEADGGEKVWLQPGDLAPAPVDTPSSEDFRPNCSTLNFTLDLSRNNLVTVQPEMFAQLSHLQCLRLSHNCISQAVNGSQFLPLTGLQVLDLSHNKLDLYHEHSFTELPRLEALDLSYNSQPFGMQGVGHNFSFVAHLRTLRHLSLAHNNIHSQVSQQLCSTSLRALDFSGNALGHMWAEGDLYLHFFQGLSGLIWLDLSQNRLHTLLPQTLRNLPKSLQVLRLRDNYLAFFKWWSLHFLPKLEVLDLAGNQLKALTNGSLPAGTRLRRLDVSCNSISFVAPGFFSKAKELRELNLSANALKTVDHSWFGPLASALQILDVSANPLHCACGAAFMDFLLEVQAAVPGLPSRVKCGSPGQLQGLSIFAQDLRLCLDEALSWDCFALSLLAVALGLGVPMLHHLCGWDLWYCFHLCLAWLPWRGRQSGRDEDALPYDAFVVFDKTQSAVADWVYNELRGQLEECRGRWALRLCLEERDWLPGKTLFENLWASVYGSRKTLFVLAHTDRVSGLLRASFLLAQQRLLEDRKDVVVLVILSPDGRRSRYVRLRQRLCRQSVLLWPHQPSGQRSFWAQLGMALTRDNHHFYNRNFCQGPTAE

For test [4], the target named is human TLR5 expressed on HEK293 cells (human) (UniProt O60602).
The target of test [5] is human TLR4 (MD2-CD14) expressed on HEK293 cells (human) (UniProt O00206).
Test [6] concerns the target T3, human TLR8 expressed on HEK293 cells (human) (UniProt Q9NR97).
T3 sequence: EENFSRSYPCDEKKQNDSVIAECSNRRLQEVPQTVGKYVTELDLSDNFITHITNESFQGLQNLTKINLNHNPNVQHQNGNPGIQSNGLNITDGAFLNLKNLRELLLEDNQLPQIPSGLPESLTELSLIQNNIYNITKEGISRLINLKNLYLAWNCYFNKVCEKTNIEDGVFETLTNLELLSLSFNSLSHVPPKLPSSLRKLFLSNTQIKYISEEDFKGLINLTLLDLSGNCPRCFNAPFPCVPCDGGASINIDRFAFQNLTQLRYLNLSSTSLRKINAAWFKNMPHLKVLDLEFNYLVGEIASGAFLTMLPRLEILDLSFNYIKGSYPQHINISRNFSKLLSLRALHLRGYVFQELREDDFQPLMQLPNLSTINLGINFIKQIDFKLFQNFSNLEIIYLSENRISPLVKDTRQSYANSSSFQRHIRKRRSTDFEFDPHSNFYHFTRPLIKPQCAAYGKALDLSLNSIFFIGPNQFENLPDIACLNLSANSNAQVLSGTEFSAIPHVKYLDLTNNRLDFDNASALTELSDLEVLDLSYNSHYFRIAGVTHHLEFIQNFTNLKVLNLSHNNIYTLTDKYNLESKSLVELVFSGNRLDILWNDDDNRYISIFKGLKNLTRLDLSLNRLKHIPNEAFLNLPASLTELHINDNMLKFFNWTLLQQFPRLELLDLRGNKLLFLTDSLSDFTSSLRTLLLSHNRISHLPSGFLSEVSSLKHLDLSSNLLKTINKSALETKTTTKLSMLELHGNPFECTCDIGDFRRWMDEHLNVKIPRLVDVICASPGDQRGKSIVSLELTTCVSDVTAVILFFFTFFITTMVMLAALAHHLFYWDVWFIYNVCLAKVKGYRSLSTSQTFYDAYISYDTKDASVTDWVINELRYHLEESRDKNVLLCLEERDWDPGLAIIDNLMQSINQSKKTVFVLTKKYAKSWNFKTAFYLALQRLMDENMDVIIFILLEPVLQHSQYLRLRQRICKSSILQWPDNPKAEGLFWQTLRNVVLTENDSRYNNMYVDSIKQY

The target of test [7] is human TLR2 expressed on HEK293 cells (human) (UniProt O60603).
Sequence of human TLR2 expressed on HEK293 cells (human) (O60603 21-784): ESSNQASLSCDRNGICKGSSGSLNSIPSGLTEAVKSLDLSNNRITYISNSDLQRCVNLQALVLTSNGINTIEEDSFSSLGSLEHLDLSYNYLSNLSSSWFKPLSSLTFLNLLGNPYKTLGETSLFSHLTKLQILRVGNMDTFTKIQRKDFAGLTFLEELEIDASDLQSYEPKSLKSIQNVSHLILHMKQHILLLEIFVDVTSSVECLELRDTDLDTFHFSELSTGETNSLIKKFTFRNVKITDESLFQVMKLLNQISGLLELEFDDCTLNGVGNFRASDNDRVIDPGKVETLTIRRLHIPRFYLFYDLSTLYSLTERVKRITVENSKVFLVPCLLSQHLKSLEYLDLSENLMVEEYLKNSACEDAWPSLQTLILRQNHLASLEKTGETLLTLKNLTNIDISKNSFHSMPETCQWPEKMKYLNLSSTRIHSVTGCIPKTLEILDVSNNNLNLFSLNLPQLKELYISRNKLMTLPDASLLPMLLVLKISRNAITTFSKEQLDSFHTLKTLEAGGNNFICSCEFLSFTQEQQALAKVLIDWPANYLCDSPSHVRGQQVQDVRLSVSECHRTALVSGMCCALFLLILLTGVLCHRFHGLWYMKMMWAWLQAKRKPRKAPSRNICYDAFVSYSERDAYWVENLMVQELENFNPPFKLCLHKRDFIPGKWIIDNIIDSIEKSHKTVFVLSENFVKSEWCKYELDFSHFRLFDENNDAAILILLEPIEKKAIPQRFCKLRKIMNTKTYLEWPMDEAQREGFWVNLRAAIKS

Sequence of human TLR5 expressed on HEK293 cells (human) (O60602 21-858): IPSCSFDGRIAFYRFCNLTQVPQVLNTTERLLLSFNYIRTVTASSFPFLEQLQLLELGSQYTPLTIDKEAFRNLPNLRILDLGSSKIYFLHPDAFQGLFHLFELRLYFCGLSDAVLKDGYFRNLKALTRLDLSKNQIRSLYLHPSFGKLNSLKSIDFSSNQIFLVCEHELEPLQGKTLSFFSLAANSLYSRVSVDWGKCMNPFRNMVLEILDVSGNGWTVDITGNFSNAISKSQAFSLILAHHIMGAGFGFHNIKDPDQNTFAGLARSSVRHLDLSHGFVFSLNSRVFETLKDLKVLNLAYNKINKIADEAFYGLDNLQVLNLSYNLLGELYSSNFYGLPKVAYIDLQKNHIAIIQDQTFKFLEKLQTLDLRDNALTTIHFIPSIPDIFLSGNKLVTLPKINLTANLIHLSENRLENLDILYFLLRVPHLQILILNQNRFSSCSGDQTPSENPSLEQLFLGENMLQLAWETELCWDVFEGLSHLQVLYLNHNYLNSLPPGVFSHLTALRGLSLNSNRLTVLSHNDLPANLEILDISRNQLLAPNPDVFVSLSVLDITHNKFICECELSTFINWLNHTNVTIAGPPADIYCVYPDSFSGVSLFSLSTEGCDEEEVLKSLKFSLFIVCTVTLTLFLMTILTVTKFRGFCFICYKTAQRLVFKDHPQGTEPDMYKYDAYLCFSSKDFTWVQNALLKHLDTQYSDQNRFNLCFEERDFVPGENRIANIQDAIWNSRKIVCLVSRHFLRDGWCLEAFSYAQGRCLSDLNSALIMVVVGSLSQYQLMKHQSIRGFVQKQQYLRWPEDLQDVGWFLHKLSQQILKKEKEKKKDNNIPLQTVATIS
Sequence of human TLR4 (MD2-CD14) expressed on HEK293 cells (human) (O00206 24-839 limits assumed, chain 1 of 3): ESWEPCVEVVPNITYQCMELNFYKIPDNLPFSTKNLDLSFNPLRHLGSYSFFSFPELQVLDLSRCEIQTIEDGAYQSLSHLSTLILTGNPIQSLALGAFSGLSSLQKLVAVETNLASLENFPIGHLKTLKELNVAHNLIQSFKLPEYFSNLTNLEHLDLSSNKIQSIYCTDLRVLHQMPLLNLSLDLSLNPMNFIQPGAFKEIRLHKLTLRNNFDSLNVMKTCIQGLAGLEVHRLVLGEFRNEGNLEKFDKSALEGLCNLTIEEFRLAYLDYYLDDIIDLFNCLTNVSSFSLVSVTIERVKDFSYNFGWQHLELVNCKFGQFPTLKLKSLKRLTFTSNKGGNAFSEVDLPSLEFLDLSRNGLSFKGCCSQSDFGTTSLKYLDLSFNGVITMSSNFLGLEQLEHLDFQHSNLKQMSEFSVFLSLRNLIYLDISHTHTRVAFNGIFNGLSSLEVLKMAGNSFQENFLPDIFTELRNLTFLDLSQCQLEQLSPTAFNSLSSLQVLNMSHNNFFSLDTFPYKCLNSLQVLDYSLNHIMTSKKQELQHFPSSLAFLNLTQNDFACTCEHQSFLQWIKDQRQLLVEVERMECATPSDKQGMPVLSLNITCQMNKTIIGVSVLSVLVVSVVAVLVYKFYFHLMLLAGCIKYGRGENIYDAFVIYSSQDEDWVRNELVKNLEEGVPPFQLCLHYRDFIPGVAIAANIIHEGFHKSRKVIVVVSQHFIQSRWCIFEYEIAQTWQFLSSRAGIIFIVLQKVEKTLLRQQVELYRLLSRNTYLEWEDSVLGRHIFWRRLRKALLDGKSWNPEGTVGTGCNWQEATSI
Sequence of human TLR4 (MD2-CD14) expressed on HEK293 cells (human) (Q9Y6Y9 19-160 limits assumed, chain 2 of 3, further chain): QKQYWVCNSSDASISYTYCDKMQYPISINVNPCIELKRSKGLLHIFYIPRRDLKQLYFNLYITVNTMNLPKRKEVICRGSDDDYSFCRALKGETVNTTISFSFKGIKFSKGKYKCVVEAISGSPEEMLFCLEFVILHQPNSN
Sequence of human TLR4 (MD2-CD14) expressed on HEK293 cells (human) (P08571 20-345 limits assumed, chain 3 of 3, further chain): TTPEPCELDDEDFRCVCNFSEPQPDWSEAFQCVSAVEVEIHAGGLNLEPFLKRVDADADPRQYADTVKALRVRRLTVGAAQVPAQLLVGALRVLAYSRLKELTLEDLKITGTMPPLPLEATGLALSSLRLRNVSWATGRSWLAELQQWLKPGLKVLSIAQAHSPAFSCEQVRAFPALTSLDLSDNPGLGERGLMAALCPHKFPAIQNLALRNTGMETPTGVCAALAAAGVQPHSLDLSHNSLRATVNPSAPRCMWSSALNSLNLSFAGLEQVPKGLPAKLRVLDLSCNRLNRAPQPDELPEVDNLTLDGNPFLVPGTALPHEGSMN

B1: truncated YscF (protein)
chain: LKKPADDANKAVNDSIAALKDKPDNPALLADLQHSINKWSVIYNINSTIVRSMKDLMQGILQKFP
Take B1: the SEAP reporter expression in HEK293 cells, screening 1 in test [1] was determined as 0.097; in test [2] it was 0.091; in test [3] it was 0.079; in test [4] it was 0.15; in test [5], 2; in test [6], 0.099. Besides, the SEAP reporter expression in HEK293 cells, screening 1 in test [7] was found to be 2.02. In addition, the SEAP reporter expression in HEK293 cells, screening 2 in test [1] came to 0.101; in test [2], 0.097; in test [3], 0.079; in test [4], 0.154; in test [5] it was 1.9; in test [6], 0.105. In addition, the SEAP reporter expression in HEK293 cells, screening 2 in test [7] turned out to be 1.98.
